# US20250332197A1 (SUNSHINE LAKE PHARMA, published 2025)
# Numbering of substitutions follows the chain as printed.
# B1: 1B6-huVH1-HC (IgG1) huVL1 (antibody)
# heavy: not shown
# light: DIVMTQSPSSLSVSVGDRVTMTCKSSQSLFNSGNQKNYLTWYQQKPGKAPKLLIYWASTRESGVPDRFSGSGSGTDFTLTISSVQPEDFATYFCQNDYSYPLTFGGGTKLEIKRTVAAPSVFIFPPSDEQLKSGTASVVCLLNNFYPREAKVQWKVDNALQSGNSQESVTEQDSKDSTYSLSSTLTLSKADYEKHKVYACEVTHQGLSSPVTKSFNRGEC
# notes: humanized 1B6, human IgG1, kappa
# B2: 1B6-huVH3-HC (IgG1) huVL2 (antibody)
# heavy: not shown
# light: B1 light with V3Q, V13A, D66S, V84L, F93Y
# notes: as for B1
# B3: 1B6-huVH1huVL1 (antibody, human IgG4 S228P, kappa)
# heavy: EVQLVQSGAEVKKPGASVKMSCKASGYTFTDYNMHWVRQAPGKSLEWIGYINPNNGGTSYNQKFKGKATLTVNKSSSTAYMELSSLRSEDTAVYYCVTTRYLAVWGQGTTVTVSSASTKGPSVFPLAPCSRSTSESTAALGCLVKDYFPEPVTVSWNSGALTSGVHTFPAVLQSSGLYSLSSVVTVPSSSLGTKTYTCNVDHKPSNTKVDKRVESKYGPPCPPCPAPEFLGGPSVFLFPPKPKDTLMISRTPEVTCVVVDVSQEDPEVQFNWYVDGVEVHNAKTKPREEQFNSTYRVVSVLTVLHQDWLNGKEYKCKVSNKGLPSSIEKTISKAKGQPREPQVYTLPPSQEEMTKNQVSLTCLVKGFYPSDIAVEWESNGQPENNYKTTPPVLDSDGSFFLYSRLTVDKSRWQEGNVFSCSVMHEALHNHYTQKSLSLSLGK
# light: B1 light
# notes: humanized 1B6, human IgG4, kappa
# B4: 1B6-huVH3-HC (IgG1) huVL3 (antibody)
# heavy: not shown
# light: B1 light with V3Q, V13A, M21I, K24R, D66S, V84L, F93Y
# notes: as for B1
# B5: 1B6-huVH2-HC (IgG1) huVL2 (antibody)
# heavy: not shown
# light: B1 light with V3Q, V13A, D66S, V84L, F93Y
# notes: as for B1
# B6: 1B6-huVH5-HC (IgG1) huVL3 (antibody)
# heavy: not shown
# light: B1 light with V3Q, V13A, M21I, K24R, D66S, V84L, F93Y
# notes: as for B1
# B7: 1B6-huVH2-HC (IgG1) huVL1 (antibody)
# heavy: not shown
# light: B1 light
# notes: as for B1
# B8: 1B6-huVH1-HC (IgG1) huVL2 (antibody)
# heavy: not shown
# light: B1 light with V3Q, V13A, D66S, V84L, F93Y
# notes: as for B1
# B9: 1B6-huVH5-HC (IgG1) huVL2 (antibody)
# heavy: not shown
# light: B1 light with V3Q, V13A, D66S, V84L, F93Y
# notes: as for B1
# B10: 1B6-huVH4-HC (IgG1) huVL2 (antibody)
# heavy: not shown
# light: B1 light with V3Q, V13A, D66S, V84L, F93Y
# notes: as for B1
# B11: 1B6-huVH3-HC (IgG1) huVL1 (antibody)
# heavy: not shown
# light: B1 light
# notes: as for B1
# B12: 1B6-huVH4-HC (IgG1) huVL3 (antibody)
# heavy: not shown
# light: B1 light with V3Q, V13A, M21I, K24R, D66S, V84L, F93Y
# notes: as for B1
# Tests used:
# [1] = target: T1, claudin-18.2 antigen (manufacturer: GenScript, batch number: R50092011) (UniProt P56856-2 1-261, limits assumed); assay: ELISA, plate coated with claudin-18.2 antigen
# T1 construct: Bought antigen
# T1 sequence (looked up): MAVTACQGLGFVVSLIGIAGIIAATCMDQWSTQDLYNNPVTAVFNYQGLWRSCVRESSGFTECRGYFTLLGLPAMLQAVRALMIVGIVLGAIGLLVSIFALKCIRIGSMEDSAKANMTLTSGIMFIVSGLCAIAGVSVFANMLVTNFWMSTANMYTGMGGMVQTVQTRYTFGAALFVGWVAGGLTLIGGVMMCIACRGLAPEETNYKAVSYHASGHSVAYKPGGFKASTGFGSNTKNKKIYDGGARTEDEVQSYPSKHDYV
# Protocol: The ELISA plates were washed three times with PBST and blocked with 5% PBS-milk for 2 h at room temperature. The ELISA plate was washed three times with PBST, and the diluted antibodies were added to the ELISA plate, 30 μL per well, and incubated at room temperature for 60 min. The plates were washed three times with PBST and incubated with anti-human IgG-Fc-HRP (abcam, ab97225) for 50 min at room temperature. The plate was washed 12 times with PBST, and TMB was added, 30 μL per well. The reaction was terminated with stop solution and OD450 was read. The ELISA affinity EC50 was calculated.
# [2] = target: T1, claudin-18.2 antigen (manufacturer: …); assay: Gator label-free kinetics, antibody loaded, antigen 2000-500 nM
# Protocol: The GATOR instrument and associated software were opened and the Kinetics experimental mode was selected. After data collection, Kinetics fitting was performed to calculate the affinity kinetic parameters. The correlation coefficient R² of all antibodies in the Global fitting mode was greater than 0.95, which met the system suitability requirements and the results were reliable.
Binder,EC50 [1] [µg/mL],Kd [2] [nM],koff [2] [s⁻¹],kon [2] [M⁻¹ s⁻¹]
B1,0.0248,63.3,0.00123,19400
B2,0.0614,10.9,0.00012,11100
B3,0.0839,98.8,0.00222,22400
B4,0.0725,9.64,0.000116,12100
B5,0.0301,11.8,0.00013,11000
B6,0.035,76.8,0.00175,22700
B7,0.0403,9.84,0.000101,10300
B8,0.0162,86.7,0.00171,19700
B9,0.0298,59.7,0.00129,21600
B10,0.0431,20.5,0.000207,10100
B11,0.0592,7.65,7.83e-05,10200
B12,0.0519,43.9,0.000799,18200
